Measurements: patent US7897142B2, “Peptide based-compounds” (GE Healthcare AS, priority 2004, dated 2011)
Positions of bridges follow the written chain, without caps; N, C: chain ends. Residues, ends and D or L forms follow the SMILES beside them. *: point of attachment. X1 = CC[N+]1=C(/C=C/C=C/C=C2/N(CCCCCC(=O)*)c3ccc(S(=O)(=O)O)cc3C2(C)C)C(C)(C)c2cc(S(=O)(=O)[O-])ccc21; X3 = C[N+]1=C(/C=C/C=C/C=C2/N(CCCCCC(=O)*)c3ccccc3C2(C)C)C(C)(C)c2cc(S(=O)(=O)[O-])ccc21; X2 = NC(=O)COCC(=O)NCCOCCOCCOCCN*

Assay: in vitro
Conditions: blood plasma
Procedure: Protein Binding Analysis of Dye Conjugates Containing 1, 2 and 4 Sulphonic Acid Groups
An analysis of protein binding of the dye conjugates of the invention was performed by an equilibrium dialysis and rate dialysis as described in the book “Protein-Ligand Interactions: Hydrodynamics and calorimetry”, edited by Stephen E. Harding and Babur Z. Chowdhry, Oxford University Press, published 2001, chapter 2 by Bent Honoré, Department of Medical Biochemisty, University of Aarhus.

SMILES | fraction unbound
C[N+]1=C(/C=C/C=C/C=C2/N(CCCCCC(=O)NCCCC[C@@H]3NC(=O)CSC[C@@H](C(=O)NCCOCCOCCOCCNC(=O)COCC(N)=O)NC(=O)[C@H](Cc4ccccc4)NC(=O)[C@@H]4CSSC[C@H](NC3=O)C(=O)N[C@@H](CCCNC(=N)N)C(=O)NCC(=O)N[C@@H](CC(=O)O)C(=O)N4)c3ccccc3C2(C)C)C(C)(C)c2cc(S(=O)(=O)[O-])ccc21 [Compound A, Cys2-6; c[CH2CO-Lys(Cy5 mono-SO3)-Cys-Arg-Gly-Asp-Cys-Phe-Cys]-(PEG)n-NH2 (n=1)] ({CH2CO}-K(X3)CRGDCFC-X2; disulfide 2-6; thioether N-8) | 0.83
CC[N+]1=C(/C=C/C=C/C=C2/N(CCCCCC(=O)NCCCC[C@@H]3NC(=O)CSC[C@@H](C(=O)NCCOCCOCCOCCNC(=O)COCC(N)=O)NC(=O)[C@H](Cc4ccccc4)NC(=O)[C@@H]4CSSC[C@H](NC3=O)C(=O)N[C@@H](CCCNC(=N)N)C(=O)NCC(=O)N[C@@H](CC(=O)O)C(=O)N4)c3ccc(S(=O)(=O)O)cc3C2(C)C)C(C)(C)c2cc(S(=O)(=O)[O-])ccc21 [Compound B, Cys2-6; c[CH2CO-Lys(Cy5 bis-SO3)-Cys-Arg-Gly-Asp-Cys-Phe-Cys]-(PEG)n-NH2 (n=1)] ({CH2CO}-K(X1)CRGDCFC-X2; disulfide 2-6; thioether N-8) | 0.79
CC[N+]1=C(/C=C/C=C/C=C2/N(CCCCCC(=O)NCCCC[C@@H]3NC(=O)CSC[C@@H](C(=O)NCCOCCOCCOCCNC(=O)COCC(N)=O)NC(=O)[C@H](Cc4ccccc4)NC(=O)[C@@H]4CSSC[C@H](NC3=O)C(=O)N[C@@H](CCCNC(=N)N)C(=O)NCC(=O)N[C@@H](CC(=O)O)C(=O)N4)c3ccc4c(S(=O)(=O)O)cc(S(=O)(=O)O)cc4c3C2(C)C)C(C)(C)c2c1ccc1c(S(=O)(=O)O)cc(S(=O)(=O)O)cc21 [Compound C] | 0.55
